Results as given in the Human Domainome abundance scans (Beltran et al. 2025).
± gives the uncertainty stated by the source.

B1: Transitional endoplasmic reticulum ATPase, residues 26 to 106; numbered along this chain, P55072 (parent)
chain: LIVDEAINEDNSVVSLSQPKMDELQLFRGDTVLLKGKKRREAVCIVLSDDTCSDEKIRMNRVVRNNLRVRLGDVISIQPCP

Variants of: B1
Assay: abundance fitness (aPCA) (normalised: wild type 0, dead -1); higher = more abundant; growth selection in yeast, the domain comes from the species named
Details: Homo sapiens

In order of falling abundance fitness:
1. A42C  0.116 ± 0.15
2. N11H  0.103 ± 0.089
3. L71N  0.103 ± 0.14
4. S12Q  0.093 ± 0.068
5. P19I  0.088 ± 0.12
6. A42S  0.085 ± 0.069
7. L71T  0.083 ± 0.097
8. R61K  0.079 ± 0.095
9. K35Q  0.078 ± 0.088
10. P81N  0.073 ± 0.17
11. R61A  0.059 ± 0.067
12. P81D  0.058 ± 0.12
13. C44K  0.057 ± 0.075
14. P19S  0.051 ± 0.059
15. I7L  0.048 ± 0.05
16. Q25D  0.048 ± 0.094
17. E5Y  0.048 ± 0.089
18. E9C  0.045 ± 0.069
19. L33V  0.042 ± 0.061
20. K35C  0.04 ± 0.18
21. I7M  0.039 ± 0.066
22. A42F  0.037 ± 0.095
23. K38T  0.033 ± 0.11
24. A42D  0.028 ± 0.12
25. A42H  0.027 ± 0.039
26. K38G  0.025 ± 0.067
27. D22Q  0.023 ± 0.092
28. S12D  0.019 ± 0.066
29. N65D  0.017 ± 0.11
30. P79A  0.015 ± 0.063
31. L71G  0.009 ± 0.053
32. E55L  0.003 ± 0.059
33. P19H  -0.003 ± 0.15
34. L71S  -0.004 ± 0.073
35. R61V  -0.005 ± 0.059
36. R28Q  -0.008 ± 0.066
37. K38W  -0.011 ± 0.14
38. I7G  -0.011 ± 0.031
39. R28P  -0.012 ± 0.068
40. K20Q  -0.014 ± 0.11
41. S12L  -0.019 ± 0.053
42. C44L  -0.02 ± 0.034
43. I7C  -0.021 ± 0.1
44. K38R  -0.024 ± 0.077
45. N11I  -0.024 ± 0.038
46. R61G  -0.025 ± 0.061
47. G36S  -0.026 ± 0.07
48. L71K  -0.026 ± 0.091
49. E55T  -0.03 ± 0.12
50. V69M  -0.032 ± 0.1
51. S12K  -0.035 ± 0.065
52. S12F  -0.036 ± 0.095
53. D22E  -0.038 ± 0.059
54. E23T  -0.041 ± 0.083
55. D4M  -0.041 ± 0.077
56. N11R  -0.042 ± 0.038
57. A42Y  -0.045 ± 0.22
58. Q25G  -0.045 ± 0.05
59. Q18R  -0.046 ± 0.062
60. L71V  -0.048 ± 0.058
61. K38Q  -0.051 ± 0.16
62. L67I  -0.057 ± 0.083
63. D22M  -0.06 ± 0.066
64. V63F  -0.061 ± 0.14
65. A42V  -0.065 ± 0.057
66. M59C  -0.066 ± 0.088
67. C44T  -0.066 ± 0.07
68. N11V  -0.067 ± 0.045
69. P79M  -0.076 ± 0.11
70. N11Y  -0.079 ± 0.12
71. D22S  -0.084 ± 0.05
72. V74G  -0.085 ± 0.052
73. D4G  -0.085 ± 0.043
74. L71D  -0.086 ± 0.15
75. V74W  -0.087 ± 0.091
76. P79E  -0.087 ± 0.082
77. Q18I  -0.088 ± 0.076
78. E41S  -0.09 ± 0.057
79. V63M  -0.095 ± 0.11
80. K35A  -0.096 ± 0.066
81. K38S  -0.097 ± 0.092
82. E9W  -0.098 ± 0.049
83. E41Q  -0.098 ± 0.43
84. P19D  -0.101 ± 0.16
85. G29Q  -0.104 ± 0.049
86. Q25M  -0.106 ± 0.091
87. N65C  -0.106 ± 0.095
88. G29S  -0.109 ± 0.062
89. E9H  -0.109 ± 0.11
90. P79T  -0.11 ± 0.088
91. E23N  -0.112 ± 0.31
92. V13R  -0.113 ± 0.046
93. V74L  -0.117 ± 0.064
94. R61W  -0.119 ± 0.079
95. L33S  -0.122 ± 0.056
96. V13E  -0.127 ± 0.066
97. E41Y  -0.14 ± 0.15
98. E23V  -0.142 ± 0.087
99. V13M  -0.143 ± 0.083
100. Q25L  -0.149 ± 0.046
101. E5P  -0.149 ± 0.051
102. N66I  -0.151 ± 0.1
103. P81V  -0.153 ± 0.14
104. S17G  -0.153 ± 0.043
105. S12I  -0.166 ± 0.11
106. Q25H  -0.168 ± 0.15
107. I7Q  -0.17 ± 0.089
108. G29D  -0.172 ± 0.097
109. V46I  -0.175 ± 0.07
110. R61M  -0.178 ± 0.19
111. P19C  -0.179 ± 0.11
112. P79I  -0.181 ± 0.14
113. L33E  -0.19 ± 0.081
114. Q18F  -0.191 ± 0.074
115. I7N  -0.193 ± 0.3
116. E23H  -0.2 ± 0.21
117. D4L  -0.203 ± 0.047
118. G29A  -0.203 ± 0.06
119. N11F  -0.208 ± 0.18
120. E41V  -0.213 ± 0.056
121. G36V  -0.218 ± 0.059
122. P81Y  -0.224 ± 0.16
123. K35F  -0.247 ± 0.2
124. P19N  -0.251 ± 0.26
125. P19K  -0.252 ± 0.18
126. G72H  -0.257 ± 0.16
127. N11W  -0.26 ± 0.069
128. D4K  -0.271 ± 0.13
129. G72K  -0.317 ± 0.097
130. D4Y  -0.32 ± 0.28
131. L33G  -0.344 ± 0.038
132. L26A  -0.36 ± 0.063
133. L24H  -0.366 ± 0.21
134. G36R  -0.37 ± 0.056
135. P79D  -0.383 ± 0.15
136. G29T  -0.391 ± 0.092
137. G72Q  -0.424 ± 0.13
138. S17R  -0.431 ± 0.043
139. V46P  -0.439 ± 0.1
140. K35D  -0.455 ± 0.18
141. E23C  -0.496 ± 0.26
142. L24Q  -0.516 ± 0.14
143. V46K  -0.528 ± 0.21
144. L24P  -0.551 ± 0.099
145. L24A  -0.553 ± 0.054
146. C44E  -0.559 ± 0.18
147. S17Q  -0.671 ± 0.1
148. L24T  -0.705 ± 0.088
149. K20E  -0.705 ± 0.12
150. L67P  -0.789 ± 0.14
151. S17Y  -0.806 ± 0.21
152. M59S  -0.817 ± 0.13
153. I75N  -0.842 ± 0.31
154. I75D  -0.863 ± 0.41
155. V46Y  -0.911 ± 0.23
156. I75Y  -0.916 ± 0.31
157. N65P  -0.926 ± 0.21
158. I75G  -0.944 ± 0.19
159. L33P  -0.955 ± 0.13
160. C44P  -0.969 ± 0.14
161. S17D  -1.01 ± 0.34
162. S17V  -1.03 ± 0.26
163. I75K  -1.05 ± 0.3
164. D4P  -1.11 ± 0.19
